Patent publication US20110229463A1 (SYMPHOGEN A S, published 2011)
Substitutions are numbered along the chain they refer to. Each block holds one binder with its values, some of them ahead of it.

Assays:
[1] = target: T1, recombinant human EGFR extracellular domain with 6xHis (human, UniProt P00533 25-645); assay: SPR (BIAcore 2000): IgG captured by anti-human Fc, soluble EGFR ECD injected
T1 construct: In-house protein; also called 6xHis EGFR ECD; soluble human EGFR ECD; not shown: 6xHis tag
Method: Kinetic analysis of the full length IgG antibodies of the invention was performed on a BIAcore 2000, employing an assay as described in (Canziani, Klakamp, et al. 2004, Anal. Biochem, 325:301-307) allowing measurement of monovalent affinities of whole IgG molecules against soluble antigen. […] The chip surface was regenerated in between cycles by stripping the captured antibody/antigen complexes with a 10 second injection of 100 mM H₃PO₄. […] The association rate constant (ka) and dissociation constant (kd) were evaluated globally from the generated sensograms with the BIA evaluation software 4.1 provided by the manufacturer.

[2] = target: T1, recombinant human EGFR extracellular …; assay: SPR; EGFR ECD saturated with mix N=6: 1261+1347+992+1024+1030+1361
Method: SPR analysis was performed on a Biacore 3000 machine containing four flow cells. A CM5 Biacore chip was conjugated with 10,000 Resonance units (Ru) polyclonal anti-His antibody to flow cells 1-4 according to the manufacturer's instructions. […] Immediately after antigen injection the maximal binding of the Anti-EGFR mAb without competition was established in each flow cell during a reference run. Briefly 5 μl antibody at a concentration of 40 μg/ml was injected over all flow cells with captured EGFR followed by stripping of the antibody/antigen complex with a low pH acid wash (10 sec. contact time with 10 mM Glycine-HCl, pH2). After the determination of Anti-EGFR antibody maximal binding to each flow cell, a competition run was performed during the same Biacore cycle. Flow cells were first saturated with EGFR ECD antigen followed by injection of different reference antibodies or Anti-EGFR antibodies into separate flow cells using the same antigen saturating conditions as outlined above. This step was immediately followed by a second injection of Anti-EGFR antibody over the flow cell saturated with EGFR antigen and competition antibody to minimize the dissociation of either antigen or blocking antibody. Then the antibody/antigen complexes were stripped off with a low pH acid wash (10 sec. contact time with 10 mM Glycine-HCl, pH 2) and the whole cycle beginning with the reference run was repeated with a new Anti-EGFR antibody. The degree of inhibition of tested Anti-EGFR antibodies were determined by comparing the Ru max value of the individual Anti-EGFR antibody before and after competition by introduction of report points recorded two seconds before and after injection of each sample.

[3] = target: T2, Wild type full length EGFR purified from A431 cells (human, UniProt P00533 25-1210); assay: indirect ELISA, Fab on coated purified full length EGFR, anti-human Fab HRP
T2 construct: mature; purified from cells and coated on ELISA wells; also called purified full length EGFR; Sigma E3641

[4] = target: T3, EGFR-Fc (recombinant EGFR ECD-Fc chimera, R&D Systems 344-ER) (human, UniProt P00533 25-645); assay: SPR (Biacore 2000): EGFR ECD-Fc immobilised on CM5, Fab injected
T3 construct: Bought; also called immobilized Human EGFR ECD; not shown: Human IgG Fc
Method: To investigate possible differences in antigen presentation between EGFR ECD presented in soluble and immobilized form, a new affinity measurement on an immobilized chimeric EGFR receptor antigen termed EGFR-Fc (R&D Systems, 344-ER), consisting of Human EGFR ECD fused to Human IgG Fc was performed.

[5] = target: T3, EGFR-Fc (recombinant EGFR ECD-Fc …); assay: SPR, Fab on immobilised EGFR ECD-Fc against IgG with soluble EGFR ECD
[6] = target: T2, Wild type full length EGFR purified …; assay: ELISA: antibody titrated on coated full length EGFR, then biotinylated EGF (blocked ligand), streptavidin-HRP
Method: The next morning wells were washed twice with PBS-T and blocked for one hour with 150 μl PBS-T-1% BSA at room temperature, followed by wash twice in PBS-T. Next 80 μl of serially diluted Anti-EGFR antibodies and control antibodies were added to wells and incubated 30 min at room temperature. […] Subsequently wells were washed five times with PBS-T, followed by incubation with 100 μl/well Streptavidin-HRP secondary reagent diluted 1:1000 in blocking buffer and incubation at room temperature for 30 min. Finally wells were washed five times with PBS-T and plates were developed by adding 100 μL/well TMB substrate and incubated for 60 min. After incubation the reaction was stopped by addition of 1 M H₂SO₄; 100 μl/well and plates were read at OD 450 nm.

[7] = target: T4, human EGFR expressed on cells (human, UniProt P00533 25-1210); assay: cell ELISA on A431-NS cells (Fab ED50) against SPR KD
T4 construct: whole, on cells; also called EGFR on A431-NS cells; full length Human EGFR on transfected CHO cells

B2: antibody 1030 (antibody, human IgG1, kappa, V domains shown)
VH: EVQLVESGGGLVKPGGSLKLSCAASGFTFSSYALSWVRQTPERRLEWVASISGVGSTYFPDSVKGRFTMSRDNARNILYLQMSSLRSEDTAMYYCARGSDGYFYAMDYWGQGTSVTVSS
VL: DIVLTQSPASLAVSLGQRATISCRASKSVSTSGYSFMHWYQLKPGQPPKLLIYLASNLESGVPARFSGSGSGTDFTLNIHPVEEEDAATYYCQHSREFPLTFGGGTKLEIKR
notes: Chimeric mouse/human IgG1 kappa
t1/2 [1]: 31.1 min | Inhibition Sample mAb [2]: 87%

B3: Fab fragment of antibody 1030 (Fab, V domains shown, not shown: small tags and cut ends)
VH: EVQLVESGGGLVKPGGSLKLSCAASGFTFSSYALSWVRQTPERRLEWVASISGVGSTYFPDSVKGRFTMSRDNARNILYLQMSSLRSEDTAMYYCARGSDGYFYAMDYWGQGTSVTVS
VL: B2 VL
EC50 (read off the curve) [3]: ~5 nM | t1/2 [4]: 57.5 min | fold higher affinity against immobilized antigen as compared to soluble receptor [5]: 10 fold

B6: antibody 1254 (antibody, human IgG1, kappa, V domains shown)
VH: EVQLVESGGGLVKPGGSLKLSCAASGFAYSTYDMSWVRQTPEKRLEWVAYISSGGDAAYYPDTVKGRFTISRDNAKNTLYLQMSSLKSEDTAMYYCARSRYGNYGDAMDYWGQGTSVTVSS
VL: DVVMTQTPLSLPVSLGDQASISCRSSQSLVHSNGNTYLHWYLQKPGQSPKLLLYKVSNRFSGVPDRFSGSGSGTDFTLKISRVESEDLGVYFCSQNTHVYTFGGGTKLEIKR
notes: Chimeric mouse/human IgG1 kappa; also called mAb 1254
t1/2 [1]: 11.3 min

B7: antibody 992 (antibody, human IgG1, kappa, V domains shown)
VH: EVQLQQPGSELVRPGASVKLSCKASGYTFTSYWMHWVKQRPGQGLEWIGNIYPGSRSTNYDEKFKSKATLTVDTSSSTAYMQLSSLTSEDSAVYYCTRNGDYYVSSGDAMDYWGQGTSVTVSS
VL: DIQMTQTTSSLSASLGDRVTISCRTSQDIGNYLNWYQQKPDGTVKLLIYYTSRLHSGVPSRFSGSGSGTDFSLTINNVEQEDVATYFCQHYNTVPPTFGGGTKLEIKR
notes: Chimeric mouse variable / human IgG1 kappa; the light chain entry includes the human kappa constant region; the end of the range is counted on the printed entry
t1/2 [1]: 0.2 min | Inhibition Sample mAb [2]: 116%

B8: Fab fragment of antibody 992 (Fab, V domains shown, not shown: small tags and cut ends)
VH: EVQLQQPGSELVRPGASVKLSCKASGYTFTSYWMHWVKQRPGQGLEWIGNIYPGSRSTNYDEKFKSKATLTVDTSSSTAYMQLSSLTSEDSAVYYCTRNGDYYVSSGDAMDYWGQGTSVTVS
VL: B7 VL
t1/2 [4]: 0.2 min | fold difference of the monovalent functional affinity on cells against the value tested with BIAcore [7]: 15 fold

B9: antibody 1024 (antibody, human IgG1, kappa, V domains shown)
VH: QVQLQQPGAELVEPGGSVKLSCKASGYTFTSHWMHWVKQRPGQGLEWIGEINPSSGRNNYNEKFKSKATLTVDKSSSTAYMQFSSLTSEDSAVYYCVRYYGYDEAMDYWGQGTSVTVSS
VL: DIVMTQAAFSNPVTLGTSASISCRSSKSLLHSNGITYLYWYLQKPGQSPQLLIYQMSNLASGVPDRFSSSGSGTDFTLRISRVEAEDVGVYYCAQNLELPYTFGGGTKLEIKR
notes: as for B2
t1/2 [1]: 2.4 min | Inhibition Sample mAb [2]: 113%

B10: Fab fragment of antibody 1024 (Fab, V domains shown, not shown: small tags and cut ends)
VH: QVQLQQPGAELVEPGGSVKLSCKASGYTFTSHWMHWVKQRPGQGLEWIGEINPSSGRNNYNEKFKSKATLTVDKSSSTAYMQFSSLTSEDSAVYYCVRYYGYDEAMDYWGQGTSVTVS
VL: B9 VL
t1/2 [4]: 2.3 min

The remaining lines, values ahead:

t1/2 [1]: 3.6 min | Inhibition Sample mAb [2]: 95%
B1: antibody 1261 (antibody, human IgG1, kappa, V domains shown)
VH: EVQLVESGGGLVKPGGSLKLSCAVSGFTFSSYVMSWVRQTPEKRLEWVATITSGGRNIYYLDSVKGRFTISRDNAKNTLYLQMSSLRSEDTAMYYCARHEDYRYDGYYAMDYWGQGTSVTVSS
VL: QIVLTQSPAIMSASPGEKVTITCSASSSVSYMHWFQQKPGTSPKLWIYSTSNLASGVPARFSGSGSGTSYSLTISRMEAEDAATYYCQQRSSYPYTFGGGTKLELKR
notes: as for B2

IC50 (read off the curve) [6]: ~40 ng mAb/ml | t1/2 [1]: 74.1 min
B4: antibody 1260 (antibody, human IgG1, kappa, V domains shown)
VH: QVQLKESGPGLVAPSQSLSITCTVSGFSLTTYGVHWVRQPPGKGLEWLGVIWAGGSTNYNSALMSRLSIKKDNSKSQVFLKMNSLQTDDTAMYYCARAYGYNFDYWGQGTTLTVSS
VL: DIQMTQTTSSLSASLGDRVTISCSASQGITNYLNWYQQKPDGTVKLLIYYSSSLHSGVPSRFSGSGSGTDYSLTISNLEPEDIATYYCQQYSEIPYTFGGGTKLELKR
notes: as for B2

IC50 (read off the curve) [6]: ~20 ng mAb/ml | t1/2 [1]: 4.1 min
B5: antibody 1320 (antibody, human IgG1, kappa, V domains shown)
VH: QVQLQQPGAELVKPGASMKLSCKASGYTFTNYWMHWVKQRPGQGLEWIGEINPSNGRTNYNEKFKSKATLTVDKSSSTAYMQLSSLTSEDSGVYYCAKGGNYYDYDWDYWGQGTTLTVSS
VL: B4 VL with G28D, T30S, Y50H, S51T, S53T, E93K, I94L, Y96W, L106I
notes: as for B2

t1/2 [1]: 22.9 min | Inhibition Sample mAb [2]: 80%
B11: antibody 1347 (antibody, human IgG1, kappa, V domains shown)
VH: QVQLKESGPGLVAPSQSLSITCTVSGFSLTGHGVNWVRQPPGKGLEWLGMIWGDGSTDYNSTLKSRLSISKDNSKSQVFLKMNSLQTDDTARYYCARGYGYLYYFDYWGQGTTLTVSS
VL: ENVLTQSPAIMSASPGEKVTMTCRASSSVSSSYLHWYQQKSGASPKLWIYSTSNLASGVPARFSGSGSGTSYSLTVNSVETEDAATYYCHQYSGFPFTFGSGTKLELKR
notes: as for B2

t1/2 [1]: 78.1 min
B12: antibody 1284 (antibody, human IgG1, kappa, V domains shown)
VH: QVQLQQPGAELVKPGASVKLSCKASGYTFTSDWMHWMKQRPGQGLEWIGEINPSNGRSSYNEKFKSKATLTVDKSSSTAYMQLSSLTSEDSAVYYCARIGGIYVETYWGQGTLVTVSS
VL: DIVLTQSPASLAVSLGQRATISCRASQSVSTSTYSYMHWYQQKSGQPPKLLIKYASNLESGVPARFSGSGSGTDFTLNIHPVEEEDTATYYCQHSWEIPWTFGGGTKLEIKR
notes: as for B2
